Several values for one entry are separate records, joined by “and”; a condition that tells them apart may be missing. Equal entries are not always repeated. Ends that are not written are not given here. * marks the point of attachment. Palmitoyl = CCCCCCCCCCCCCCCC(=O)*
Columns and labels:
[1] = target: T1, recombinant SERCA1a (recS1a) (Oryctolagus cuniculus, UniProt P04191); test: Turnover-dependent dephosphorylation kinetics; assay type: biochemical, rabbit (expressed in S. cerevisiae); conditions: for effect on rate of dephosphorylation: after addition of non-radioactive ATP
T1 construct: BAD (biotin acceptor domain) (C, cleaved yes); made in house; host or cells: Saccharomyces cerevisiae
Method: (§1) Transient formation of the phosphoenzyme intermediate was measured after incubation with [γ^32P]ATP followed by acid quenching, and filtration. For most experiments, 50 µL of enzyme at 10 µg/mL in a buffer containing 50 mM Tes-Tris pH7.5, 1 mM KCl, 5 mM MgCl2, 20% glycerol (w/w) and 0.5 mg/mL DDM, supplemented or not with SLN, was stored on ice. Concentrations of EGTA and calcium are specified in figure legends in order to reach the appropriate [Ca^2+]free and therefore the desired starting state for the ATPase. For kinetics of phosphorylation, we initiate reaction by addition of 2 µM [γ^32P]ATP (5 mCi/µmole), and calcium at 100 µM when specified. Reaction was quenched by addition of 2 mL of cold quenching medium (500 mM TCA + 30 mM H3P0_4) under vigorous mixing, and immediately stored on ice for 20–30 min to improve precipitation, a period of time critical for retention of the precipitate on the filter in presence of detergent. This was followed by filtration on GS filters (Millipore, Saint Quentin-Fallavier, France) and careful rinsing of the filters with diluted quenching medium (50 mM TCA + 3 mM H3P0_4). The amount of radioactivity bound to the filter was estimated by liquid scintillation counting (Perkin Elmer TriCarb Counter). When starting from a calcium-deprived state (Fig. 4C,D), EGTA was added only one minute before starting phosphorylation to limit irreversible inactivation of the solubilized ATPase, although the presence of glycerol helps in protecting the enzyme from irreversible inactivation. For dephosphorylation kinetics, 1 mM “cold” Mg.ATP was added after a 30 s period of phosphorylation. For Ca^2+-dependency, we adjust the concentration of free calcium according to the Ca.EGTA constant as mentioned above, before triggering phosphorylation. […] Phosphorylations were done at 0 °C especially for inhibition by vanadate to prevent dissociation of vanadate and limit irreversible inactivation in absence of calcium.

[2] = tested on: recombinant purified SERCA1a (recS1a); test: Limited proteolysis with proteinase K (SDS-PAGE); assay type: biochemical, rabbit (expressed in S. cerevisiae); conditions: Ca2.E1 (1 mM calcium) and E2.Tg (EGTA + thapsigargin); recS1a:pSLN 1:10 mole:mole; 0.3 mg/mL proteinase K, 5-30 min, 20 °C
Method: Yeast-expressed and purified SERCA1a (recS1a) was supplemented with SLN at a mole:mole ratio of 1:10 recS1a:SLN. In absence of SLN, recS1a was supplemented with 0.07 mg/mL C12E8, an amount that corresponds to the detergent brought with chemically synthesized SLN. After 30 min at 20 °C, samples were supplemented with either 1.1 mM EGTA (Ca^2+free ~ 1 mM), or 50 mM EGTA (Ca^2+free ~ 150 nM) and 0.01 mg/mL Tg. After an additional incubation for 10 min at 20 °C, proteolysis was achieved by addition of 0.3 mg/mL proteinase K. Proteolysis was stopped by addition of 1 mM PMSF and incubation on ice for 10 min. After proteolysis arrest, samples were diluted twice in a 4 M-urea containing denaturation buffer, boiled for 60 s, and about 0.75 µg protein were loaded on a 9% SDS-PAGE prepared in the presence of 1 mM Ca^2+[32]. After electrophoresis, gels were stained with Coomassie blue.

[3] = target: T1, recombinant SERCA1a (recS1a); test: Calcium binding at equilibrium by tryptophan fluorescence; set-up: species or system rabbit (expressed in S. cerevisiae); conditions: average of three independent experiments; for Ca1/2 (tryptophan fluorescence), recS1a + pSLN: at equilibrium, pH 7, 20 °C, DDM, 20% glycerol, p=0.200 vs recS1a alone
Method: Intrinsic fluorescence of SERCA1a was measured with a SPEX Fluorolog spectrofluorometer (Horiba/Jobin–Yvon, Longjumeau, France) as described before. Briefly, signals were monitored with excitation and emission wavelength set at 295 and 320 nm, with bandwidths of 2 and 10 nm, respectively. Changes in tryptophan fluorescence were recorded at 20 °C after dilution of protein samples to a final concentration of about 6–7.5 µg/mL into a medium containing 50 mM MOPS-Tris pH 7, 100 mM KCl, 5 mM MgCl2, 20% glycerol (v/v) and 10 mg/mL DDM. In presence of SLN, recS1a and SLN were first mixed together and incubate for 1 h on ice before measurement. In absence of SLN, recS1a is supplemented with 0.07 mg/mL C12E8 to compensate the detergent present with SLN. The Maxchelator program was used for estimating [Ca^2+]free[59] (program available at https://somapp.ucdmc.ucdavis.edu/pharmacology/bers/maxchelator/downloads.htm). The dissociation constant of the Ca.EGTA complex was taken to be 0.4 µM at pH7 and was assumed to be the same in the presence of glycerol.

[4] = target: T1, recombinant SERCA1a (recS1a); test: Calcium dependence of phosphoenzyme level; assay type: biochemical, rabbit (expressed in S. cerevisiae)
Method: as §1

T1 sequence (P04191 1-994 isoform P04191-2): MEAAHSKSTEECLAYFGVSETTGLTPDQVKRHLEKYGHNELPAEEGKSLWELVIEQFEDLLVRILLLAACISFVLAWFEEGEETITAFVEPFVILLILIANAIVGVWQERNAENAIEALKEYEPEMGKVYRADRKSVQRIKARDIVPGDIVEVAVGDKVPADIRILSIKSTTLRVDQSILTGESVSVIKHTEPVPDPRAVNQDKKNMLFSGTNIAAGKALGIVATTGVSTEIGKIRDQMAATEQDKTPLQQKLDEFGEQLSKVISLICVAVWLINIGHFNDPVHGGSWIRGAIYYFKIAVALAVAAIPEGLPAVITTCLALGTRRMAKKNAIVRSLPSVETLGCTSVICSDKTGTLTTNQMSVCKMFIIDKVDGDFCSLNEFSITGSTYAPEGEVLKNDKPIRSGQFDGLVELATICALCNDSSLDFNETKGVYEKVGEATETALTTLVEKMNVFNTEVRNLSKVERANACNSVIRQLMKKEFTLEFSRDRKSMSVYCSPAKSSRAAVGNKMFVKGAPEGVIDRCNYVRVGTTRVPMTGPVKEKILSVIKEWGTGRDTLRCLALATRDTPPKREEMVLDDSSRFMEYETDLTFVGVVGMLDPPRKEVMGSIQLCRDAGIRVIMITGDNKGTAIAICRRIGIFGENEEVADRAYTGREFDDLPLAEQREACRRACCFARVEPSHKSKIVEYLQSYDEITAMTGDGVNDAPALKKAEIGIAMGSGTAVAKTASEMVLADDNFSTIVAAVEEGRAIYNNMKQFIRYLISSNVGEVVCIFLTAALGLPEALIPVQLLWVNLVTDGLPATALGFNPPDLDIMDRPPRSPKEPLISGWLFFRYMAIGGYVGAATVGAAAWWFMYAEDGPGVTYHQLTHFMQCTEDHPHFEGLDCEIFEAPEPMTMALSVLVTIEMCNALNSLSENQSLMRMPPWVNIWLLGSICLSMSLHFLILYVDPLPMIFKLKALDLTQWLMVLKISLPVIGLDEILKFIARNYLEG

Substance | effect on rate of dephosphorylation [1] | effect on proteinase K proteolysis [2] | t1/2 of dephosphorylation ([1]; pSLN:SERCA1a 10:1 mol:mol, 1 mM cold Mg.ATP after 30 s phosphorylation, three replicates from two independent experiments, recS1a alone 2.4 +/- 0.4, p=0.064) | Ca1/2 (tryptophan fluorescence), recS1a + pSLN [3] | Ca1/2 (tryptophan fluorescence), recS1a + pSLN ([3]; listed as Palm-SLN) | nH for calcium (tryptophan fluorescence), recS1a + pSLN [3] | nH for calcium (phosphoenzyme level), recS1a + pSLN ([4]; five independent experiments) | Ca1/2 (phosphoenzyme level), recS1a + pSLN ([4]; phosphorylation 15 s, varying calcium, five independent experiments, 36 data points per fit, p = 0.29) | EPmax (calcium dependence) ([4]; recS1a + pSLN, Fig. 4E, recS1a alone 3.13 ± 0.11)
SLN: chemically synthesized non-palmitoylated rabbit sarcolipin; in cited literature results sarcolipin in general (MERSTRELCLNFTVVLITVILIWLLVRSYQY; UniProt P42532 1-31, looked up) | No effect |  |  |  |  |  |  |  | 
pSLN: chemically synthesized S-palmitoylated rabbit sarcolipin, 31-residue single-spanning membrane peptide, palmitoylated on Cys9 (MERSTRELC(Palmitoyl)LNFTVVLITVILIWLLVRSYQY; UniProt P42532 1-31, looked up) | No effect | drastically slowed | 2.8 ± 0.6 s | 4.5 µM | 4.48 +/- 0.52 µM | 1.96+/-0.20 | 0.74 ± 0.03 | 0.58 ± 0.05 µM and 0.58 µM | 3.19 ± 0.11 nmoles EP/mg ATPase

Source: paper PMC7810697, “Sarcolipin alters SERCA1a interdomain communication by impairing binding of both calcium and ATP” (Scientific Reports, 2021)
